Assay results as given in paper PMC6377645, “Structural insights into chaperone addiction of toxin-antitoxin systems” (Nature Communications, 2019).
“And” between values parts separate entries of the source, which are not always exact repeats. Identical values can stand only once.

B1: ChAD peptide, Mtb-HigA1(104-116) (peptide)
peptide: EVPTWHRLSSYRG
notes: residues 104-116 of the antitoxin Mtb-HigA1 of Mycobacterium tuberculosis (chaperone addiction region); also called C4; 13-mer ChAD peptide
B2: Mtb-SecB^TA chaperone (Rv1957), His6-tag removed (natural protein)
chain: MTDRTDADDLDLQRVGARLAARAQIRDIRLLRTQAAVHRAPKPAQGLTYDLEFEPAVDADPATISAFVVRISCHLRIQNQAADDDVKEGDTKDETQDVATADFEFAALFDYHLQEGEDDPTEEELTAYAATTGRFALYPYIREYVYDLTGRLALPPLTLEILSRPMPVSPGAQWPATRGTP
notes: SecB-like chaperone Mtb-SecB^TA (Rv1957) of Mycobacterium tuberculosis, 181 amino acids; untagged mass printed as 20,388 Da; Residues of the pET15b vector may remain after thrombin cleavage (surmised from the printed mass); For MST the protein was labelled with the dye NT-647; also called SecB-like chaperone; TA-associated SecB chaperone; not shown: His6, N-terminal, cleaved

How the values were obtained:
[1] = target: B2; test: MST; 100 nM NT-647-labelled Mtb-SecB^TA with 3 nM to 100 µM ChAD peptide; 20 mM MES, 200 mM NaCl, 0.025% Tween 20, pH 6.5; 22 °C; settings: both partners purified
[2] = target: B2; test: native MS; Mtb-SecB^TA 11.8 µM (tetramer) in 200 mM ammonium acetate pH 7, titrated with ChAD peptide at molar ratios 0 to 20 per tetramer; control peptides C2, C3, C7 at 8 peptides per tetramer; Kd fitted with UniDec, 4 sites, all KD's free; settings: both partners purified
[3] = target: B2; test: ITC; ChAD peptide (80-620 µM) injected into Mtb-SecB^TA (18-48 µM) in the cell; 12 °C; 20 mM MES, 200 mM NaCl, pH 6.5; one set of sites; Kd and enthalpy printed once for direct and reverse conditions; settings: both partners purified
[4] = target: B1; test: ITC; reverse conditions (protocol of the reverse titration not described); 12 °C; 20 mM MES, 200 mM NaCl, pH 6.5; settings: both partners purified
[5] = target: the molecule itself; test: SEC-MALS; Superdex 200 Increase 5/150; 20 mM MES, 200 mM NaCl, pH 6.5; 15 °C; Mtb-SecB^TA 49.1 µM, Mtb-SecB^TA/HigA1 6.5 µM, Mtb-HigA1^ΔC42 100 µM
[6] = target: the molecule itself; test: SEC-MALS
[7] = target: B2; test: native MS; Mtb-SecB^TA/HigA1 9.7 µM (hexamer) in 200 mM ammonium acetate pH 7, with 0 to 16 ChAD peptide molecules per hexamer; settings: both partners purified
[8] = target: B2; test: SEC-MALS; Superdex 200 Increase 5/150; 20 mM MES, 200 mM NaCl, pH 6.5; 15 °C; Mtb-SecB^TA 49.1 µM, Mtb-SecB^TA/HigA1 6.5 µM, Mtb-HigA1^ΔC42 100 µM; settings: both partners purified

B1
Kd [1]: 2600 ± 600 nM | Kd of the single binding events (four sites fitted, all KD's free) [2]: 6000 to 17000 nM | stoichiometry N [2]: ≤ 4 peptides per tetramer | Kd [3]: 1900 ± 200 nM | dH [3]: -12 kcal/mol | stoichiometry N [3]: 0.47

B2
stoichiometry N [4]: 2.2 | stoichiometry N [5]: 4

B3: Mtb-SecB^TA with a N-terminal His6-tag (before thrombin cleavage) (natural protein)
chain: MTDRTDADDLDLQRVGARLAARAQIRDIRLLRTQAAVHRAPKPAQGLTYDLEFEPAVDADPATISAFVVRISCHLRIQNQAADDDVKEGDTKDETQDVATADFEFAALFDYHLQEGEDDPTEEELTAYAATTGRFALYPYIREYVYDLTGRLALPPLTLEILSRPMPVSPGAQWPATRGTP
notes: SecB-like chaperone Mtb-SecB^TA (Rv1957) of Mycobacterium tuberculosis, 181 amino acids; also called His6-Mtb-SecB^TA; not shown: His6, N-terminal, kept
stoichiometry N [6]: 8 and 4

B4: Mtb-HigA1 antitoxin, full length, untagged (natural protein)
chain: MSIDFPLGDDLAGYIAEAIAADPSFKGTLEDAEEARRLVDALIALRKHCQLSQVEVAKRMGVRQPTVSGFEKEPSDPKLSTLQRYARALDARLRLVLEVPTLREVPTWHRLSSYRGSARDHQVRVGADKEILMQTNWARHISVRQVEVA
notes: antitoxin HigA1 of the TAC system of Mycobacterium tuberculosis, untagged; Obtained only in complex with Mtb-SecB^TA (4:2 hetero-hexamer); also called TAC antitoxin
stoichiometry N [7]: 0.5 HigA1 chains per SecB^TA chain (printed as 4:2 Mtb-SecB^TA/HigA1) | stoichiometry N [8]: 0.5 HigA1 chains per SecB^TA chain (printed as 4:2 chaperone/antitoxin) | stoichiometry N [5]: 2
